Test: Enzymatic cleavage assay with lysosomal homogenate
Format: in vitro ADME
Settings: rat liver lysosomal homogenate, conjugate:lysosomal protein 1:10 (w/w), 0.2 M NaOAc pH 5.05, 37 °C, UPLC-HRMS
Protocol: The enzymatically cleavage test was performed by incubating the conjugate 2 with rat liver lysosomal homogenate and analyzed by LC–MS. In particular, the conjugate 2 (2.35 μg/μL in DMSO, 5 μL) was diluted with 0.2 M NaOAc solution (pH 5.05, 495 μL) to 0.024 μg/μL. The lysosomal homogenate was prepared from rat liver ([Gomena et al., 2023]), and contained proteins in 71.76 μg/μL concentration. 8.6 μL of this lysosomal homogenate was diluted with 66.4 μL 0.2 M NaOAc solution (pH 5.05), to have a protein concentration of 8.27 μg/μL. To start the assay, 15 μL lysosome homogenate (8.27 μg/μL) was added to 500 μL conjugate solution (0.025 μg/μL), to have a conjugate: lysosomal protein = 1:10 (w/w) ratio. Furthermore, a control reaction mixture was prepared, containing the conjugate (2.35 μg/μL in DMSO, 5 μL) and 510 μL of 0.2 M NaOAc solution (pH 5.05). The samples were stirred at 300 rpm, 37°C and 50 µL aliquots were taken out at 0 min, 15 min, 30 min, 1 h, 2 h, 6 h, 24 h, and 72 h. The enzymatic activity was quenched by adding 5 μL formic acid (FA) to the samples. After this procedure, samples were frozen immediately at −25°C. Control samples were collected at 0 min, 1 h, 6 h, 24 h and 72 h. The composition of the samples was determined by HPLC-MS. […] LC-MS data were analyzed by XcaliburTM software (Thermo Fisher Scientific).

With `CC[C@H](C)[C@@H]([C@@H](CC(=O)N1CCC[C@H]1[C@H](OC)[C@@H](C)C(=O)N[C@H](C)[C@@H](O)c1ccccc1)OC)N(C)C(=O)[C@@H](NC(=O)[C@H](C(C)C)N(C)C(=O)OCc1ccc(NC(=O)CNC(=O)[C@H](CC(C)C)NC(=O)[C@@H]2CCCN2C(=O)CNC(=O)CCc2cn(CCOCCOCCOCCOCC(=O)NCc3ccc(CN4C(=O)[C@H]5CC(=O)N[C@H](C(=O)O)CC(=O)NCC(=O)N[C@@H](CCCNC(=N)N)C(=O)NC[C@H]4C(=O)N5)cc3)nn2)cc1)C(C)C` [compound 2, cyclo[DKP-isoDGR]-PEG4-GPLG-PABC-MMAE] the “cleavage of the conjugate in the presence of lysosomal enzymes” value was “rapidly cleaved” and the “incubation time after which released free MMAE is detectable” value was no more than 15 min.

Reference: paper PMC10363981, “Optimizing the enzymatic release of MMAE from isoDGR-based small molecule drug conjugate by incorporation of a GPLG-PABC enzymatically cleavable linker” (Frontiers in Pharmacology, 2023)
